The experiment concerns the target cetuximab (human). Briefly: BLI; cetuximab (20 µg/ml) immobilised on Fab2G sensors; scFv hFc4 25 to 200 nM in kinetics buffer; 1:1 Langmuir model. Background: BLI is a label-free optical method that tracks binding on a fibre tip over time.

B1: humanized scFv hFc4 (scFv, V domains shown)
VH: EVQLLESGGGLVQPGGSLRLSCAASGFTFSSYAMNWVRQAPGKGLEFVAGINAAGSGANYAPAVKGRATISRDNSPNTVYLQMNSLRAEDTAVYYCAKGSGSCNHCGGGHGGMIDEWGQGTLVTVSS
VL: SYELMQPPSVSVSPGQTARITCSGGSSTYYGWYQQKPGQAPVTVIYWDDERPSGIPERFSGSSSGNTVTLTINGVQAEDEADYYCGGYDSSVGIFGGGTKLTVL
A word on the Kd: it is the constant that tells how readily two partners part at equilibrium. A higher Kd goes with lower affinity. Molecule B1 gave a Kd of 20.5 nM.

The record behind these values is article PMC8369199.
